Measured values from US20260201058A1 (SICHUAN HUIYU PHARMACEUTICAL, published 2026).
Residue numbers refer to the chain shown, from its start. Each block holds one binder with its values, some of them ahead of it.

Experiments:
Experiment in all cases: Carterra HC30M chip, antibody captured via anti-DYKDDDDK, PD-L1 as analyte
[1] = molecular target: T1, monkey PD-L1 protein (Kactus Biosystems, PDL-CM210) (monkey)
T1 construct: Bought protein; also called Monkey PDL1-Fc
Procedure: (§1) The anti-[…] antibody was bound to the HC30M chip via amino coupling, then 2 μg/mL of humanized PD-L1 single-domain antibody was captured. […] Kinetic constants were obtained by fitting with Carteria software.

[2] = molecular target: T2, mouse PD-L1 protein (ACRO, PD1-M5251) (mouse, UniProt Q9EP73 19-238)
T2 construct: Bought protein; also called Mouse PDL1-Fc
Procedure: as §1

[3] = molecular target: T3, human PD-L1 protein (ACRO, PD1-H5258) (human, UniProt Q9NZQ7 19-238)
T3 construct: Bought protein; also called Human PDL1-Fc
Procedure: as §1

T2 sequence (Q9EP73 19-238): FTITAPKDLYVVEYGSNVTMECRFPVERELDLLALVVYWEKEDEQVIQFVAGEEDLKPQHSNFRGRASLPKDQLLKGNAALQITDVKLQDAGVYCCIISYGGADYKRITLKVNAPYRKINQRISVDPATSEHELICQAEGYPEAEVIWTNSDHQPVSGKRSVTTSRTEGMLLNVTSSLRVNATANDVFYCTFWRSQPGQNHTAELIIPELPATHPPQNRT
T3 sequence (Q9NZQ7 19-238): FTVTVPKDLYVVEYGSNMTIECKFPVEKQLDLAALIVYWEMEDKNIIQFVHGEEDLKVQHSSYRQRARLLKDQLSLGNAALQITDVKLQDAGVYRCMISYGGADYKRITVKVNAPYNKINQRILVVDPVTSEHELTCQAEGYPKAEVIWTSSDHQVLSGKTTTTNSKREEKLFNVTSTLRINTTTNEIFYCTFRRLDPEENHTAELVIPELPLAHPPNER

Kd [1]: 828 nM
Kd [2]: 154 nM
Kd [3]: 796 nM
B3: 4A7 hu-11 (Fc fusion)
chain: EVQLLESGGGLVQPGGSLRLSCAASGRTFSSYVMGWFRQAPGKGLEWVSAISRAGSTYSADSVKGRFTISRDNSKNTLYLQMNSLRAEDTAVYYCAAGSSPTAIFGKSGMDYWGQGTQVTVSSGGGGSGGGGSDKTHTCPPCPAPEAAGAPSVFLFPPKPKDTLMISRTPEVTCVVVDVSHEDPEVKFNWYVDGVEVHNAKTKPREEQYNSTYRVVSVLTVLHQDWLNGKEYKCAVSNKALPAPIEKTISKAKGQPREPQVYTLPPSRDELTKNQVSLTCLVKGFYPSDIAVEWESNGQPENNYKTTPPVLDSDGSFFLYSKLTVDKSRWQQGNVFSCSVMHEALHNHYTQKSLSLSP
notes: Humanized VHH-Fc antibody

Kd [1]: 60.7 nM
Kd [2]: 9.97 nM
Kd [3]: 54.9 nM
B5: 4A7 hu-15 (Fc fusion)
chain: B3 chain with L45R, W47F
notes: Humanized VHH-Fc antibody

Kd [1]: 75.3 nM
Kd [2]: 9.82 nM
Kd [3]: 45.1 nM
B7: 4A7 hu-16 (Fc fusion)
chain: B3 chain with G44E, L45R, W47F
notes: Humanized VHH-Fc antibody

Kd [1]: 94.5 nM
Kd [2]: 19.5 nM
Kd [3]: 79 nM
B9: 4A7 hu-12 (Fc fusion)
chain: B3 chain with F37V, W47F
notes: Humanized VHH-Fc antibody

Kd [1]: 76.5 nM
Kd [2]: 9.7 nM
Kd [3]: 60.9 nM
B10: 4A7 hu-14 (Fc fusion)
chain: B3 chain with P14A, W47F
notes: Humanized VHH-Fc antibody

Kd [1]: 622 nM
Kd [2]: 197 nM
Kd [3]: 805 nM
B12: 4A7 hu-10 (Fc fusion)
chain: B3 chain with F37V
notes: Humanized VHH-Fc antibody

Kd [1]: 609 nM
Kd [2]: 146 nM
Kd [3]: 652 nM
B13: 4A7 hu-9 (Fc fusion)
chain: B3 chain with G35S, F37V, S59Y
notes: Humanized VHH-Fc antibody

The next lines start with the binder.

B1: 4A7 hu-3 (Fc fusion)
chain: B3 chain with S31T, Y32N
notes: Humanized VHH-Fc antibody
Kd [1]: 599 nM
Kd [2]: 122 nM
Kd [3]: 1630 nM

B2: 4A7 hu-13 (Fc fusion)
chain: B3 chain with W47F
notes: Humanized VHH-Fc antibody
Kd [1]: 72.8 nM
Kd [2]: 10.7 nM
Kd [3]: 58.7 nM

B4: 4A7 hu-7 (Fc fusion)
chain: B3 chain with S31T, Y32N, L45R, W47F
notes: Humanized VHH-Fc antibody
Kd [1]: 61.7 nM
Kd [2]: 9.76 nM
Kd [3]: 127 nM

B6: 4A7 hu-8 (Fc fusion)
chain: B3 chain with S31T, Y32N, G44E, L45R, W47F
notes: Humanized VHH-Fc antibody
Kd [1]: 57.5 nM
Kd [2]: 10.4 nM
Kd [3]: 92.7 nM

B8: 4A7 hu-6 (Fc fusion)
chain: B3 chain with P14A, S31T, Y32N, W47F
notes: Humanized VHH-Fc antibody
Kd [1]: 99 nM
Kd [2]: 9.59 nM
Kd [3]: 136 nM

B11: 4A7 hu-4 (Fc fusion)
chain: B3 chain with S31T, Y32N, F37V, W47F
notes: Humanized VHH-Fc antibody
Kd [1]: 112 nM
Kd [2]: 21 nM
Kd [3]: 175 nM
